B1: 1104SBC1068-033 (antibody, IgG4, V domains shown)
VH: DVQLQESGPGLVKPSQSLSLTCTVTGYSITSDYAWNWIRQFPGNKLEWMGYISYSGSTSYNPSLKSRISITRDASKNQFFLQLNSVTTEDTATYYCAREGGRGGTEGYYFDYWGQGTTLTVSS
VL: NIVLTQSPASLAVSLGQRATISCRASESVDSYGNSFMHWYQQKPGQPPKLLIYLASNLESGVPARFSGSGSRTDFTLTIDPVEADDAATYYCQQNNEDPLTFGAGTKLELK
B2: 1220SBC1068-186 (antibody, IgG4, V domains shown)
VH: EVQLQQSGPELVKPGASMKMSCKASGYSFTGYTMNWVKQSHGKNLEWIGLISPYSGGTNYNQKFKGKATLTVDKSSSTAYMEVFSLTSEDSGVYYCARSGFITTGVATNFDVWGAGTTVTVSS
VL: DIVMTQSHKFMSTSVGDRVSITCKASQDVSTAVAWYQQRPGQSPKLLIYSASNRYTGVPDRFTGSGSGTDFTFTISSMQAEDLAIYYCQQHYSTPRTFGGGTKLEIK
B3: 1220SBC1068-035 (antibody, IgG4, V domains shown)
VH: EVQLQQSGPELVKPGASMKISCKASGYAFTGYTMNWVKQSHGKNLEWIGLISPYSGGTNYNQRFKGKATFTVDKSSSTAYMELLSLTSEDSGVYYCARSGFITTGVPTNFDVWGAGTTVTVSS
VL: DIVMTQSHKFMSTSVGDGVNITCKASQDVSTAVAWYQQKPGQSPRLLIYSASYRYTGVPDRFTGSGSGTDFTFTISSMQAEDLAVYYCQQHYTTPRTFGGGTKLEIK
B4: 1220SBC1068-022 (antibody, IgG4, V domains shown)
VH: EVKLVESGGGLVQPGGSRKLSCAASGFTFSDYGMAWFRQAPGKGPEWVAFISNLAYSVYYADTVTGRFTISRENAKNTLFLEMSSLRSEDTAIYYCTRDRGLRESMDYWGQGTSVTVSS
VL: DIVMTQAAPSVPVTPGESVSISCRSSKSLLHNNGNTYLCWFLQRPGQSPQLLIYRMSDLASGVPDRFSGSGSGTAFTLRISRVEAEDVGVYYCMQHLEYPYTFGGGTKLEIK
B5: 1220SBC1068-058 (antibody, IgG4, V domains shown)
VH: EVKLVESGGGLVQPGGSRKLSCAASGFTFSDYGMAWFRQAPGKGPEWVAFISNLAYSVYYADTVTGRFTISRENAKNTLYLEMNSLRSEDTAIYYCTRDRGLRETMDYWGQGTSVTVSS
VL: DIVMTQAAPSVPVTPGESVSISCRSSKSLLHNNGNTYLCWFLQRPGQSPQLLIYRMSNLASGVPDRFSGSGSGTAFTLRISRVEAEDVGVYYCMQHLEYPYTFGGGTKLEIK
B6: 1220SBC1068-056 (antibody, IgG4, V domains shown)
VH: EVKLVESGGGLVQPGGSRKLSCAASGFTFSDYGMAWFRQAPGKGPEWVAFISNLAYSVYYADTVTGRFTISRENAKNTLYLEMSSLRSEDTAIYYCTRDRGLRESMDYWGQGTSVTVSS
VL: DIVMTQAAPSVPVTPGESVSISCGSSKSLLHKNGNTYLCWFLQRPGQSPQLLIYRMSNLASGVPDRFSGSGSGTAFTLRISSVEAEDVGIYYCMQHLEYPYTFGGGTKLEIK
B7: 1104SBC1068-374 (antibody, IgG4, V domains shown)
VH: QIQLVQSGPELKKPGETVKISCKASGYTFTNYGMNWVKQAPGKGLKWMGWINTYTGEPTYADDFKGRFAFSLETSASTAYLQINNLKNEDMATYFCARYAMDYWGQGTSVTVSS
VL: QAVVTQESALTTSPGGTVILTCRSSTGAVTTSNYANWVQEKPDHLFTGLIGGTSNRAPGVPVRFSGSLIGDKAALTITGAQTEDDAMYFCALWYSTHYVFGGGTKVTVL
B8: 1104SBC1068-335 (antibody, IgG4, V domains shown)
VH: QIQLVQSGPELKKPGETVKISCKASGYIFTNYGMNWVKQAPGKGLKWMGWINTYSGEPTYVDDFKGRFVFSLETSASTAYLQINNLKNEDMATYFCARGTVVGFDYWGQGTTLTVSS
VL: not shown
B9: 1104SBC1068-365 (antibody, IgG4, V domains shown)
VH: QIQLVQSGPELKKPGETVKISCKASGYTFTNYGMNWVKQAPGKGLKWMGWINTNTGEPTYSEEFKGRFAFSLETSASTAYLQINNLKNEDTATYFCGRSSYYAMDYWGQGTSVTVSS
VL: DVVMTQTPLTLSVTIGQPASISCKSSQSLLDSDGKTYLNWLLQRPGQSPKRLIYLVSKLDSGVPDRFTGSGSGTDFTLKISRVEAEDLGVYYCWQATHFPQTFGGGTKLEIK
B10: 1220SBC1068-210 (antibody, IgG4, V domains shown)
VH: EVKLLESGGGLVQPGGSLKLSCAASGFDFSRYWMSWVRQAPGKGLEWIGEINPDSSTIDLTPSLKDNFIISRDNAKNALYLQMSKVRSEDTALYYCTRPYYGYYWGQGTLVTVSA
VL: DIVMTQSPSSLTVTAGEKVTMNCRSSQSLLNSTNQKNYLTWYQQRPGQPPKLLIYWASTRESGVPDRFTGSGSGTDFTLTISTVQAEDLAVYYCQNDYTSPFTFGSGTKLEIK
B11: 1220SBC1068-164 (antibody, IgG4, V domains shown)
VH: EVKLLESGGGLVQPGGSLKLSCAASGFDFSRYWMSWVRQAPGKGLEWIGEISPDSSTINYTASLKDKFNISRDNAKNTLYLQMSKVRSEDTALYYCARPYYGYYWGQGTLVTVSE
VL: DIVMTQSPSSLTVTAGEKVTMSCKSSQSLFNSGNQKNYLTWYQQKPGQPPKLLIYWAYTRESGVPDRFTGSGSGTDFTLTIHGVQAEDLAVYYCHNDYTSPFTFGSGTKLEMK
B12: 1220SBC1068-129 (antibody, IgG4, V domains shown)
VH: EVKLLESGGDLVQPGGSLKLSCAASGFDFSRFWMSWVRQAPGKGLEWIGEINPDSSTITYTPSLKDKFIISRDNAKSSLYLQMSKVTSEDTALYYCARPYYGYYWGQGTLVTVSA
VL: DIVMTQSPSSLTVTAGKEVTMSCKSSQSLLNSTNQKNYLTWYQQKPGQSPKLLIYWASTRDSGVPDRFTGSGSGTDFTLTISSVQAEDLAIYYCHNDYISPFTFGSGTKLEIK
B13: 1220SBC1068-099 (antibody, IgG4, V domains shown)
VH: EVKLLESGGGLVQPGGSLKLSCAASGFDFSRYWMTWVRQAPGKGLEWIGEINPHSSTITYTPSLKDKFIISRDNAKNTLYLQMSKVSSEDTALYYCARPYYGYYWGQGTLVTVSA
VL: DIVMTQSPSSLTVTAGEKVTMSCKSSQSLLNSGNQKIYLTWYQQKPGQPPKLLIYWASIRESGVPDRFTGSGSGTDFTLTISSVQAEDLAVYYCQNDYSSPFTFGSGTKLEIK
B14: 1220SBC1068-098 (antibody, IgG4, V domains shown)
VH: EVKLLESGGGLVQPGGSLKLSCAASGFDFSRYWMSWVRQAPGKGLEWIGEISPDSSTIDLTPSLKDNFIISRDNAKNALYLQMSKVKSEDTALYYCTRPYHGYYWGQGTLVTVSA
VL: DIVMTQSPSSLTVTAGEKVTMNCRSSQSLLNSTNQKNYLTWYQQKPGQPPKLLIYWASTKESGVPDRFTGSGSGTDFTLTINTVQAEDLAVYYCQNDYTSPFTFGSGTKLEIK
B15: 1220SBC1068-041 (antibody, IgG4, V domains shown)
VH: EVKLLESGGGLVQPGGSLKLSCAASGFDFSRFWMSWVRQAPGKGLEWIGEISPDSNTIDLTPSLKDNFIISRDNAKNALFLQMSKVRSEDTALYYCTRPYYGYYWGQGTLVTVSA
VL: DIVMTQSPSSLTVTAGEKVTMNCRSSQSLFNSTNQKNYLTWYQQKPGQPPKLLIYWASSRESGVPDRFTGSGSGTDFTLTISTVQTEDLAVYYCQNDYTSPFTFGSGTRLEIK
B16: 1220SBC1068-097 (antibody, IgG4, V domains shown)
VH: EVKLLESGGGLVQPGGSLKLSCAASGFDFSRYWMSWVRQAPGKGLEWIGEINPDSSTIDLTPSLKDNFIISRDNAKNALYLQMSKVKSEDTALYYCTRPYHGYYWGQGTLVTVSA
VL: DIVMTQSPSSLTVTAGEKVTMNCRSSQSLLNSTNQKNYLTWYQQKPGQPPKLLIYWASTRESGVPDRFTGSGSGTDFTLTINTVQAEDLAIYYCQNDYTSPFTFGSGTKLEIK
B17: 1220SBC1068-274 (antibody, IgG4, V domains shown)
VH: EVKLLESGGGLVQPGGSLKLSCAASGFDFSRYWMSWVRQAPGKGLEWIGEISPDSNTIDLTPSLKDNFIISRDNAKNALYLQMSKLRSEDTALYYCTRPYYGYYWGQGTLVTVSA
VL: DIVMTQSPSSLTVTAGEKVTMNCRSSQSLLNSTNQKNYLTWYQQKPGQPPKLLIYWASTRESGVPDRFTGSGSGSDFTLTISTVQAEDLAVYYCQNDYTSPFTFGSGTKLEIK
B18: 1220SBC1068-063 (antibody, IgG4, V domains shown)
VH: EVNLLESGGGLVQPGGSLKLSCEASGFDFSRFWMSWVRQTPGEGLEWIGEISPNSSTIHQTPSLKDRFIISRDNAKNTLFLQMTKVTSDDSALYYCARPYYGYYWGHGTLVTVSA
VL: DIVMTQSPSSLTVTAGEKVTMSCKSSQSLLSSINQKNYLTWYQQKPGQPPKLLIYWATSRESGVPDRFTGSGSGTDFTLTISSLQAEDLAVYYCHNDYSYPFTFGSGTRLEIK
B19: 1220SBC1068-197 (antibody, IgG4, V domains shown)
VH: EVNLLESGGGLVQPGGSLKLSCEASGFDFSRFWMSWVRQTPGEGLEWIGEISPNSSTIHQTPSLKDKFFISRDNAKSTLFLQMTNVTSEDSALYYCARPYYGYYWGHGTLVTVSA
VL: DIVMTQSPSSLTVTAGEKVTMSCKSSQSLLNSINQKNYLTWYQQKPGQPPKLLIYWATFRESGVPDRFTGSGSGTDFTLTISGLQAEDLAVYYCHNDYSYPFTFGSGTRLEIK
B20: 1104SBC1068-378 (antibody, IgG4, V domains shown)
VH: QIQLVQSGPELKKPGETVKISCKASGYTFTNYGMNWVKQAPGKGLKWMGWINTYTGEPTYADDFKGRFAFSLETSASTAYLQINNLKNEDTATYFCARWDDYDGFAYWGQGTLVTVSA
VL: DIVLTQSPATLSVTPGDSVSLSCRASQSISNNLHWYQQKSHESPRLLIKYASQSISGIPSRFSGSGSGTDFTLSINSVETEDFGMYFCQQSNSWPLTFGAGTKLELK

We go through 20 molecules from patent publication US20260034233A1 (SUNMED THERAPEUTIC, published 2026).

This assay deals with T1, human Galectin-3 (human, UniProt P17931 2-250, limits assumed).
T1 construct: also called Human GAL-3; hGal-3
T1 sequence (P17931 2-250 limits assumed): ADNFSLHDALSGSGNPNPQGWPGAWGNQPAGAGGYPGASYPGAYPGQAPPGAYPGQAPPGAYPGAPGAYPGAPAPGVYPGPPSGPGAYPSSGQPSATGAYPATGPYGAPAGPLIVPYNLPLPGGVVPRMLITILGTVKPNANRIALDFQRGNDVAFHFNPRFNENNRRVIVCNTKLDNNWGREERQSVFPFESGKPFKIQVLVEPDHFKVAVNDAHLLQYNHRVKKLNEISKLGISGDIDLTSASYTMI
The experiment in a line: Carterra LSA SPR epitope binning, antibody on chip, hGal-3 injected. How it is done: The purpose of this study is to determine the epitope binning of antibodies against human Gal-3. Binning assay was conducted to characterize epitopes of the anti-Gal-3 antibodies using a Carterra LSA instrument. All the antibodies were constructed in hIgG4 backbone. Antibodies as ligands were covalently linked to a HC200M chip. The antigen hGal-3 as the analyte was injected to flow cells to bind to the captured ligands. Competitive binning was programmed to determine if two mAbs can bind simultaneously to the same antigen.
Epitope binning assay procedure. An array of antibodies as ligand were coupled to the chip surface HC200M using the Multichannel PH with the running buffer (25 mM MES buffer). The NHS/EDC activation time and coupling time was set at 5 min and 15 min respectively. The SFC then docked onto the chip, and in each cycle, antigen human Galectin-3 was injected across the entire Ab array, with association time of 5 min, followed by a single antibody as analyte with association time of 5 min. After 1 min dissociation, regeneration buffer (pH 2.0, 10 mM Glycine) was applied for 20 s for three times. The data were analyzed by Caterra Epitope Data Analysis Software.
With B1, the binding result was “binds”. The result for B2 reads “binds”; that for B3, “binds”. As for B4, the entry is “binds”; as for B5, “binds”; as for B6, “binds”. As for B7, the entry is “binds”.

In the case of B8, the binding result is listed as “binds”. As for B9, the entry is “binds”; as for B10, “binds”; as for B11, “binds”. The result for B12 reads “binds”; that for B13, “binds”; that for B14, “binds”. As for B15, the entry is “binds”. B16: the binding result is “binds”.

On to B17, for which the binding result is “binds”. As for B18, the entry is “binds”.

In the case of B19, the binding result was “binds”.

Consider B20, for which the binding result was “binds”.
